Experimental data: FireProtDB (doi:10.1002/pro.5560050915)

Conditions: Bos taurus; pH 8.5; Thermal; DSC; ascorbate 1 mM; whole UniProt chain shown

B1: Adrenodoxin, mitochondrial wild type, P00257 (protein)
chain: MAARLLRVASAALGDTAGRWRLLARPRAGAGGLRGSRGPGLGGGAVATRTLSVSGRAQSSSEDKITVHFINRDGETLTTKGKIGDSLLDVVVQNNLDIDGFGACEGTLACSTCHLIFEQHIFEKLEAITDEENDMLDLAYGLTDRSRLGCQICLTKAMDNMTVRVPDAVSDARESIDMGMNSSKIE
- Tm: 51.4 °C
- heat capacity change of unfolding: 1.79 kcal/mol/K
- unfolding enthalpy (calorimetric): 84.8 kcal/mol
